Results published in patent publication US20050120396.

B1: purified mouse MEKK1 (protein)
chain: MVTAVPAVFSKLVTMLNASGSTHFTRMRRRLMAIADEVEIAEVIQLGVEDTVDGHQDSLQAVAPTSCLENSSLEHTVHREKTGKGLSATRLSASSEDISDRLAGVSVGLPSSTTTEQPKPAVQTKGRPHSQCLNSSPLSHAQLMFPAPSAPCSSAPSVPDISKHRPQAFVPCKIPSASPQTQRKFSLQFQRNCSEHRDSDQLSPVFTQSRPPPSSNIHRPKPSRPVPGSTSKLGDATKSSMTLDLGSASRCDDSFGGGGNSGNAVIPSDETVFTPVEDKCRLDVNTELNSSIEDLLEASMPSSDTTVTFKSEVAVLSPEKAENDDTYKDDVNHNQKCKEKMEAEEEEALAIAMAMSASQDALPIVPQLQVENGEDIIIIQQDTPETLPGHTKAKQPYREDAEWLKGQQIGLGAFSSCYQAQDVGTGTLMAVKQVTYVRNTSSEQEEVVEALREEIRMMGHLNHPNIIRMLGATCEKSNYNLFIEWMAGGSVAHLLSKYGAFKESVVINYTEQLLRGLSYLHENQIIHRDVKGANLLIDSTGQRLRIADFGAAARLASKGTGAGEFQGQLLGTIAFMAPEVLRGQQYGRSCDVWSVGCAIIEMACAKPPWNAEKHSNHLALIFKIASATTAPSIPSHLSPGLRDVAVRCLELQPQDRPPSRELLKHPVFRTTW
B2: His-tagged hMEKK1 (polyhistidine-hMEKK1 fusion) (protein)
chain: HHHHHHMENKETLKGLHKMDDRPEERMIREKLKATCMPAWKHEWLERRNRRGPVVVKPIPVKGDGSEMNHLAAESPGEVQASAASPASKGRRSPSPGNSPSGRTVKSESPGVRRKRVSPVPFQSGRITPPRRAPSPDGFSPYSPEETNRRVNKVMRARLYLLQQIGPNSFLIGGDSPDNKYRVFIGPQNCSCARGTFCIHLLFVMLRVFQLEPSDPMLWRKTLKNFEVESLFQKYHSRRSSRIKAPSRNTIQKFVSRMSNSHTLSSSSTSTSSSENSIKDEEEQMCPICLLGMLDEESLTVCEDGCRNKLHHHCMSIWAEECRRNREPLICPLCRSKWRSHDFYSHELSSPVDSPSSLRAAQQQTVQQQPLAGSRRNQESNFNLTHYGTQQIPPAYKDLAEPWIQVFGMELVGCLFSRNWNVREMALRRLSHDVSGALLLANGESTGNSGGSSGSSPSGGATSGSSQTSISGDVVEACCSVLSMVCADPVYKVYVAALKTLRAMLVYTPCHSLAERIKLQRLLQPVVDTILVKCADANSRTSQLSISTLLELCKGQAGELAVGREILKAGSIGIGGVDYVLNCILGNQTESNNWQELLGRLCLIDRLLLEFPAEFYPHIVSTDVSQAEPVEIRYKKLLSLLTFALQSIDNSHSMVGKLSRRIYLSSARMVTTVPHVFSKLLEMLSVSSSTHFTRMRRRLMAIADEVEIAEAIQLGVEDTLDGQQDSFLQASVPNNYLETTENSSPECTIHLEKTGKGLCATKLSASSEDISERLASISVGPSSSTTTTTTTTEQPKPMVQTKGRPHSQCLNSSPLSHHSQLMFPALSTPSSSTPSVPAGTATDVSKHRLQGFIPCRIPSASPQTQRKFSLQFHRNCPENKDSDKLSPVFTQSRPLPSSNIHRPKPSRPTPGNTSKQGDPSKNSMTLDLNSSSKCDDSFGCSSNSSNAVIPSDETVFTPVEEKCRLDVNTELNSSIEDLLEASMPSSDTTVTFKSEVAVLSPEKAENDDTYKDDVNHNQKCKEKMEAEEEEALAIAMAMSASQDALPIVPQLQVENGEDIIIIQQDTPETLPGHTKAKQPYREDTEWLKGQQIGLGAFSSCYQAQDVGTGTLMAVKQVTYVRNTSSEQEEVVEALREEIRMMSHLNHPNIIRMLGATCEKSNYNLFIEWMAGGSVAHLLSKYGAFKESVVINYTEQLLRGLSYLHENQIIHRDVKGANLLIDSTGQRLRIADFGAAARLASKGTGAGEFQGQLLGTIAFMAPEVLRGQQYGRSCDVWSVGCAIIEMACAKPPWNAEKHSNHLALIFKIASATTAPSIPSHLSPGLRDVALRCLELQPQDRPPSRELLKHPVFRTTW

Biological target: GST-MKK4 fusion protein [GST: P08515]
Sequence (P08515 whole entry, looked up, the tested form may be a part): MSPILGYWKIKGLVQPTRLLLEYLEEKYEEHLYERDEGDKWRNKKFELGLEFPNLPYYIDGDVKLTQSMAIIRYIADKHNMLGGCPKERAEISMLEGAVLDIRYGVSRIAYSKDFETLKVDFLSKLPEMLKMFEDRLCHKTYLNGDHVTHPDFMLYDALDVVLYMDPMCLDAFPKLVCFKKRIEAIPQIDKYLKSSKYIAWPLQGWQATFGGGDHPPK

Row | Protein | phosphorylation of GST-MKK4 (32P incorporation in kinase reaction, SDS-PAGE and imaging)
1 | B1 | The ability of extracts containing his-tagged hMEKK1 to phosphorylate GST-MKK4 was comparable to the activity of purified mouse MEKK1
2 | B2 | The ability of extracts containing his-tagged hMEKK1 to phosphorylate GST-MKK4 was comparable to the activity of purified mouse MEKK1, and significantly above the background levels seen with control extracts
